Source: paper PMC10439950 (2023)
Where a chain is given by its changes, count along the chain named.

B1: extracellular domain of human CD98hc (domain or fragment)
chain: RAPRCRELPAQKWWHTGALYRIGDLQAFQGHGAGNLAGLKGRLDYLSSLKVKGLVLGPIHKNQKDDVAQTDLLQIDPNFGSKEDFDSLLQSAKKKSIRVILDLTPNYRGENSWFSTQVDTVATKVKDALEFWLQAGVDGFQVRDIENLKDASSFLAEWQNITKGFSEDRLLIAGTNSSDLQQILSLLESNKDLLLTSSYLSDSGSTGEHTKSLVTQYLNATGNRWCSWSLSQARLLTSFLPAQLLRLYQLMLFTLPGTPVFSYGDEIGLDAAALPGQPMEAPVMLWDESSFPDIPGAVSANMTVKGQSEDPGSLLSLFRRLSDQRSKERSLLHGDFHAFSAGPGLFSYIRHWDQNERFLVVLNFGDVGLSAGLQASDLPASASLPAKADLLLSTQPGREEGSPLELERLKLEPHEGLLLRFPYAA
B2: ATV^CD98hc.6.8:DNP (designed binder)
chain: DKTHTCPPCPAPELLGGPSVFLFPPKPKDTLMISRTPEVTCVVVDVSHEDPEVKFNWYVDGVEVHNAKTKPREEQYNSTYRVVSVLTVLHQDWLNGKEYKCKVSNKALPAPIEKTISKAKGQPREPQVYTLPPSRDELTKNQVSLTCLVKGFYPSDIAVLWNSRFVLENNYKTTPPVLDSDGSFFLYSKLTVDKSRWQQGEIFACNVYHEALHNHYTFKNLALSPGK
B3: extracellular domain of cynomolgus CD98hc (domain or fragment)
chain: ELPAQKWWHTGALYRIGDLQAFQGHGSGNLAGLKGRLDYLSSLKVKGLVLGPLHKNQKDDVAQTDLLQIDPNFGSKEDFDNLLQSAKKKSIRVILDLTPNYRGENLWFSTQVDSVATKVKDALEFWLQAGVDGFQVRDIENLKDASSFLAEWENITKGFSEDRLLIAGTNSSDLQQIVSLLESNKDLLLTSSYLSDSSFTGEHTKSLVTQYLNATGNRWCSWSLSQAGLLTSFLPAQLLRLYQLMLFTLPGTPVFSYGDEIGLKAAALPGQPVEAPVMLWDESSFPDIPGAVSANMTVKGQSEDPGSLLSLFRQLSDQRSKERSLLHGDFHTFSSGPGLFSYIRHWDQNERFLVVLNFGDVGLSAGLQASDLPASASLPTKADLVLSTQPGREEGSPLELERLKLEPHEGLLLRFPYVA
B4: TV6.6 as the ATV^CD98hc:DNP clone (designed binder)
chain: B2 chain with E201N

Columns and labels:
Experiment in all cases: SPR
TV6.d12 = biological target: TV6.d12
TV6.d3 = biological target: TV6.d3
TV6.38 = biological target: TV6.38
TV6.d6 = biological target: TV6.d6
ATV^CD98hc.6.29:DNP = ATV^CD98hc.6.29:DNP (human, UniProt P01857 = IgG part)
[1] = biological target: B3
ATV^CD98hc.6.39 = ATV^CD98hc.6.39 (human, UniProt P01857 = IgG part)

Binder	Kd (TV6.d12)	Kd (TV6.d3)	Kd (TV6.38)	Kd (TV6.d6)	Kd (ATV^CD98hc.6.29:DNP)	Kd [1]	Kd (ATV^CD98hc.6.39)
B1	2.1 µM	275 nM	43 nM	550 nM	20 nM		
B2						890 nM	
B3	6 µM	2500 nM	250 nM	5000 nM			485 nM
B4						2100 nM	
